{"source": "paper PMC9820293", "key": {"[1]": {"biological_target": "Bovine cardiac actin, filamentous (F-actin) (bovine) (UniProt Q3ZC07)"}, "[2]": {"biological_target": "Bovine cardiac actin, filamentous (F-actin) (bovine) (UniProt Q3ZC07)", "remark": "listed apart in the source"}, "[3]": {"biological_target": "Bovine cardiac actin, filamentous (F-actin) (bovine) (UniProt Q3ZC07)", "remark": "listed apart in the source"}, "[4]": {"biological_target": "Bovine cardiac actin, filamentous (F-actin) (bovine) (UniProt Q3ZC07)", "test": "co-sedimentation; Tpm co-sedimented with F-actin at room temperature; apparent affinity; K50% is the Tpm concentration at which half of the actin becomes saturated; three measurements averaged; as described in refs 27, 28"}, "[5]": {"biological_target": "Bovine cardiac actin, filamentous (F-actin) (bovine) (UniProt Q3ZC07)", "test": "temperature dependence of light scattering; thermally induced dissociation of Tpm complexes with F-actin stabilized by phalloidin; light scattering at 90°, 350 nm, heating 1 °C/min; Tdiss is the temperature at which a 50% decrease in light scattering occurs; no troponin"}}, "data": [{"substance": "Atrial myosin from the left atrium of the pig (from UniProt F1RRT2 1-197; F1SSF9 1-175) (complex)", "values": [{"measurement": "C50, myosin concentration at which the sliding velocity is half-maximal, in vitro motility assay; filament: F-actin alone", "setting": "[1]", "value": 18, "unit": "µg/mL"}, {"measurement": "C50, myosin concentration at which the sliding velocity is half-maximal, in vitro motility assay; filament: F-actin with D219V Tpm", "setting": "[1]", "value": 43, "unit": "µg/mL"}, {"measurement": "C50, myosin concentration at which the sliding velocity is half-maximal, in vitro motility assay; filament: F-actin with WT Tpm", "setting": "[1]", "value": 55.4, "unit": "µg/mL"}, {"measurement": "Vmax, sliding velocity at saturated myosin concentration, in vitro motility assay; filament: F-actin alone", "setting": "[1]", "value": 3.26, "unit": "µm/s"}, {"measurement": "Vmax, sliding velocity at saturated myosin concentration, in vitro motility assay; filament: F-actin with D219V Tpm", "setting": "[1]", "value": 3.32, "unit": "µm/s"}, {"measurement": "Vmax, sliding velocity at saturated myosin concentration, in vitro motility assay; filament: F-actin with WT Tpm", "setting": "[1]", "value": 1.25, "unit": "µm/s"}, {"measurement": "V0, sliding velocity at low Ca2+ concentration, in vitro motility assay; regulated thin filament of F-actin, D219V Tpm and troponin", "setting": "[2]", "value": 1.42, "unit": "µm/s"}, {"measurement": "V0, sliding velocity at low Ca2+ concentration, in vitro motility assay; regulated thin filament of F-actin, WT Tpm and troponin", "setting": "[2]", "value": 0.39, "unit": "µm/s"}, {"measurement": "Vmax, sliding velocity at saturated Ca2+ concentration, in vitro motility assay; regulated thin filament of F-actin, D219V Tpm and troponin", "setting": "[2]", "value": 8.45, "unit": "µm/s"}, {"measurement": "Vmax, sliding velocity at saturated Ca2+ concentration, in vitro motility assay; regulated thin filament of F-actin, WT Tpm and troponin", "setting": "[2]", "value": 7.17, "unit": "µm/s"}, {"measurement": "C50 of LA myosin for the sliding velocity of thin filaments at saturated Ca2+ concentration, in vitro motility assay; thin filament with D219V Tpm", "setting": "[3]", "value": 47.2, "unit": "µg/mL"}, {"measurement": "C50 of LA myosin for the sliding velocity of thin filaments at saturated Ca2+ concentration, in vitro motility assay; thin filament with WT Tpm", "setting": "[3]", "value": 45.3, "unit": "µg/mL"}]}, {"substance": "Human Tpm1.1 D219V mutant (natural protein)", "values": [{"measurement": "K50%", "setting": "[4]", "value": 2.64, "unit": "µM"}, {"measurement": "Tdiss", "setting": "[5]", "value": 45.3, "unit": "°C"}]}, {"substance": "Human Tpm1.1 WT (cardiac tropomyosin 1.1) (natural protein)", "values": [{"measurement": "K50%", "setting": "[4]", "value": 2.88, "unit": "µM"}, {"measurement": "Tdiss", "setting": "[5]", "value": 43.3, "unit": "°C"}]}, {"substance": "Ventricular myosin from the left ventricle of the pig (from UniProt P79293 1-1935) (complex)", "values": [{"measurement": "C50, myosin concentration at which the sliding velocity is half-maximal, in vitro motility assay; filament: F-actin alone", "setting": "[1]", "value": 20.1, "unit": "µg/mL"}, {"measurement": "C50, myosin concentration at which the sliding velocity is half-maximal, in vitro motility assay; filament: F-actin with D219V Tpm", "setting": "[1]", "value": 26, "unit": "µg/mL"}, {"measurement": "C50, myosin concentration at which the sliding velocity is half-maximal, in vitro motility assay; filament: F-actin with WT Tpm", "setting": "[1]", "value": 54.9, "unit": "µg/mL"}, {"measurement": "Vmax, sliding velocity at saturated myosin concentration, in vitro motility assay; filament: F-actin alone", "setting": "[1]", "value": 2.88, "unit": "µm/s"}, {"measurement": "Vmax, sliding velocity at saturated myosin concentration, in vitro motility assay; filament: F-actin with D219V Tpm", "setting": "[1]", "value": 2.93, "unit": "µm/s"}, {"measurement": "Vmax, sliding velocity at saturated myosin concentration, in vitro motility assay; filament: F-actin with WT Tpm", "setting": "[1]", "value": 1.5, "unit": "µm/s"}, {"measurement": "V0, sliding velocity at low Ca2+ concentration, in vitro motility assay; regulated thin filament of F-actin, D219V Tpm and troponin", "setting": "[2]", "value": 0.81, "unit": "µm/s"}, {"measurement": "V0, sliding velocity at low Ca2+ concentration, in vitro motility assay; regulated thin filament of F-actin, WT Tpm and troponin", "setting": "[2]", "value": 0.24, "unit": "µm/s"}, {"measurement": "Vmax, sliding velocity at saturated Ca2+ concentration, in vitro motility assay; regulated thin filament of F-actin, D219V Tpm and troponin", "setting": "[2]", "value": 4.22, "unit": "µm/s"}, {"measurement": "Vmax, sliding velocity at saturated Ca2+ concentration, in vitro motility assay; regulated thin filament of F-actin, WT Tpm and troponin", "setting": "[2]", "value": 3.73, "unit": "µm/s"}, {"measurement": "C50 of LV myosin for the sliding velocity of thin filaments at saturated Ca2+ concentration, in vitro motility assay; thin filament with D219V Tpm", "setting": "[3]", "value": 25.9, "unit": "µg/mL"}, {"measurement": "C50 of LV myosin for the sliding velocity of thin filaments at saturated Ca2+ concentration, in vitro motility assay; thin filament with WT Tpm", "setting": "[3]", "value": 30.1, "unit": "µg/mL"}]}]}
